± gives the uncertainty stated by the source.
Experiment: amyloid nucleation score (Sup35N fusion, yeast selection) (log enrichment); library NNK1; higher = more nucleation; inactive = no reads after selection
Summary of the method: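 Psi-negative yeast expressed Sup35N fused to peptides of 20 random codons. They were induced 24 hours with 100 μM copper sulfate, grown 7 days at 30°C without adenine and uracil, and their plasmid inserts from input and output were Illumina-sequenced. The nucleation score is the DiMSum log enrichment of output over input reads, centred on the mode score of non-aggregating sequences. Sequences with under 100 input reads were excluded.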

Q: For EFTVPRWTPTGHTSGSLEWV, which amyloid nucleation score is on record?
A: 0.22 ± 0.41

Q: For ILWLVRSGVSYQQGGDSTPV, which amyloid nucleation score is on record?
A: 0.919 ± 0.28

Q: For ICHCGRHAVHRRHTCHWTLG, which amyloid nucleation score is on record?
A: inactive

Q: Which amyloid nucleation score does the source give for ICSGGYLVWELPSGTADQVM here?
A: 0.25 ± 0.48

Q: For SWYIKVFRFGLFHWSSGVGW, which amyloid nucleation score is on record?
A: inactive

Q: For TAPKIFLGGIL, which amyloid nucleation score is on record?
A: inactive

Q: With KFRDPYCKHRWAGLGKQSGD as the substance, how does the amyloid nucleation score read?
A: 0.052 ± 0.4

Q: With VYLKEEHGKFAGGPSPRCKP as the substance, how does the amyloid nucleation score read?
A: 0.274 ± 0.46

Q: For SVVTFT, which amyloid nucleation score is on record?
A: 0.575 ± 0.49

Q: Which amyloid nucleation score does the source give for VSLCEMNRSFCWDAGASGRV here?
A: 0.621 ± 1

Q: With AIRMLSISCNFMVVIL as the substance, how does the amyloid nucleation score read?
A: 0.837 ± 0.93

Q: With SGAPRSCFNHSVFRMRASCL as the substance, how does the amyloid nucleation score read?
A: 0.114 ± 1.4

Q: Which amyloid nucleation score does the source give for GPRHYKVFHSYSAFGGYSVC here?
A: 1.01 ± 0.81

Q: For ICSVRSELNSSTRC, which amyloid nucleation score is on record?
A: 0.803 ± 0.48

Q: With YKNIPFTYGSFVLASYMSRK as the substance, how does the amyloid nucleation score read?
A: 0.368 ± 0.63

Q: For LFGLYFICSLKAISSYTERL, which amyloid nucleation score is on record?
A: 0.456 ± 0.23

Q: With ICNPGVS as the substance, how does the amyloid nucleation score read?
A: 0.71 ± 0.8

Q: Which amyloid nucleation score does the source give for IVQTHYN here?
A: -0.817 ± 1.7

Q: With DYLLFSVQGNYESWYNGCKF as the substance, how does the amyloid nucleation score read?
A: -2.05 ± 2.4

Q: For CFNVSVSGEDSFLFGYGWHI, which amyloid nucleation score is on record?
A: 0.159 ± 0.66

Q: For MSLSFAPLAIYPDNIVTDVI, which amyloid nucleation score is on record?
A: -0.329 ± 0.7

Q: With FSAKYMQGTQWSRLVHMLRT as the substance, how does the amyloid nucleation score read?
A: 0.112 ± 0.48

Q: For RCDGTQDKCWDKSLLFGERR, which amyloid nucleation score is on record?
A: 0.618 ± 0.45

Q: Which amyloid nucleation score does the source give for AFSSVEFRLDVNVFPEWVVL here?
A: 3.9 ± 0.12

Q: With FNAVATKSVNRGRSLLDVTQ as the substance, how does the amyloid nucleation score read?
A: 0.62 ± 0.8

Q: With STRICWGTCFDKLDMGGSR as the substance, how does the amyloid nucleation score read?
A: 1.95 ± 0.34

Q: Which amyloid nucleation score does the source give for LPFVDLKFL here?
A: 0.374 ± 0.28

Q: For LWLLYVIECHLGCYRTVLMG, which amyloid nucleation score is on record?
A: -0.385 ± 0.93

Q: For NSITAQRVWVPPFVCLGDRY, which amyloid nucleation score is on record?
A: 0.146 ± 0.44

Q: For VLFGWGCGNTFSRPSNRGQR, which amyloid nucleation score is on record?
A: 0.97 ± 0.37

Q: For GHLQGPLSTLIHDW, which amyloid nucleation score is on record?
A: 0.564 ± 0.47

Q: Which amyloid nucleation score does the source give for LNKTSFPWLKSYKVWRNVMD here?
A: 1.71 ± 0.58

Q: Which amyloid nucleation score does the source give for TLNSPECDPNLSLML here?
A: -0.555 ± 1.1

Q: Which amyloid nucleation score does the source give for ATHPDSSMYNRTTSSNFMWF here?
A: -0.573 ± 0.75

Q: Which amyloid nucleation score does the source give for DMNNNIVSKSSFLGDVRVIY here?
A: -0.19 ± 1.2

Q: Which amyloid nucleation score does the source give for WSTLVKRSDFCVHWVLFGSG here?
A: -0.179 ± 0.46

Q: With LTMCSGICEVIRQARDHHYR as the substance, how does the amyloid nucleation score read?
A: 0.149 ± 0.97

Q: Which amyloid nucleation score does the source give for PPFDSDKA here?
A: 0.335 ± 0.77

Q: For MLEVKPLTCMVSPIYDFMPG, which amyloid nucleation score is on record?
A: -0.134 ± 0.41

Q: For MTVKSAPK, which amyloid nucleation score is on record?
A: 0.258 ± 0.55

Q: Which amyloid nucleation score does the source give for FIIISACSWLLSNWKTSGST here?
A: 6.974 ± 0.056

Q: Which amyloid nucleation score does the source give for RLLEIWFMLRFGLFVSQCTI here?
A: -0.148 ± 0.34

Q: With QGCPRVWRSQSCCGVGGVIP as the substance, how does the amyloid nucleation score read?
A: inactive

Q: Which amyloid nucleation score does the source give for LMLVRLVCLHLDDETHIRQR here?
A: inactive

Q: With FRCLTVYCWF as the substance, how does the amyloid nucleation score read?
A: 7.894 ± 0.044

Q: With NLRHALRMVTNGLSCTRKHG as the substance, how does the amyloid nucleation score read?
A: -0.278 ± 0.43

Q: With MSPLYNDFWYSCRIYKGEVM as the substance, how does the amyloid nucleation score read?
A: 0.606 ± 0.55

Q: Which amyloid nucleation score does the source give for PRLYGISRKSYVLSIFDVVS here?
A: 0.245 ± 0.21

Q: With LLPRGESHVKLKDRGSRMPW as the substance, how does the amyloid nucleation score read?
A: 0.921 ± 0.5

Q: With LFYNICFYA as the substance, how does the amyloid nucleation score read?
A: 6.738 ± 0.048

Q: For LYWNVVN, which amyloid nucleation score is on record?
A: -0.578 ± 0.5

Q: Which amyloid nucleation score does the source give for NGRFSADS here?
A: -1.77 ± 1.6

Q: Which amyloid nucleation score does the source give for IRIFNKHGHGG here?
A: -0.664 ± 0.36

Q: For HSHRVIS, which amyloid nucleation score is on record?
A: 0.828 ± 0.51

Q: For YDEGWANT, which amyloid nucleation score is on record?
A: 0.048 ± 1.5

Q: With GTKWVTLQRGGRLGMGRRSD as the substance, how does the amyloid nucleation score read?
A: 0.562 ± 1.2

Q: Which amyloid nucleation score does the source give for THFRCH here?
A: 0.762 ± 0.8

Q: Which amyloid nucleation score does the source give for FWSLRMLMLADSSDKCVDYC here?
A: inactive

Q: For LPCYSSLQSLGQRMQVKG, which amyloid nucleation score is on record?
A: 0.025 ± 0.31

Q: Which amyloid nucleation score does the source give for IMAFNDRDHG here?
A: -0.093 ± 0.21

Q: Which amyloid nucleation score does the source give for DYTRC here?
A: 0.391 ± 0.97

Q: With RKWNS as the substance, how does the amyloid nucleation score read?
A: 0.152 ± 0.72

Q: Which amyloid nucleation score does the source give for FSVARFGWFLVSALLQGWDR here?
A: -0.142 ± 0.55

Q: Which amyloid nucleation score does the source give for EGNMNEWTCLSCRSRAEEAR here?
A: -0.255 ± 0.9

Q: For LLVWNVNGSAMSCNDRCLQS, which amyloid nucleation score is on record?
A: 7.141 ± 0.049

Q: With QYYFDLIDLGITVDVMS as the substance, how does the amyloid nucleation score read?
A: 0.684 ± 0.84

Q: With TGEPKRS as the substance, how does the amyloid nucleation score read?
A: 1.58 ± 0.49

Q: For NGHHALLYMPFAQTC, which amyloid nucleation score is on record?
A: -0.745 ± 1.2

Q: With SANMKYRTLKQSLG as the substance, how does the amyloid nucleation score read?
A: 0.176 ± 0.52

Q: For WGYNRLNDDELLIMSKFLRQ, which amyloid nucleation score is on record?
A: 1 ± 0.48

Q: With TGCGERWGQSMVIGVSL as the substance, how does the amyloid nucleation score read?
A: -0.102 ± 0.62

Q: Which amyloid nucleation score does the source give for FAFRRSI here?
A: 0.332 ± 0.9

Q: Which amyloid nucleation score does the source give for HLGTTNMNVFNVG here?
A: 1.79 ± 0.082

Q: For HYLCPVACRGRFVVSQPVNI, which amyloid nucleation score is on record?
A: -1.14 ± 1.5

Q: With GSTQPCRNTFLLFLPALTIP as the substance, how does the amyloid nucleation score read?
A: inactive

Q: With RVGAPFNLVRSCSGATLCEV as the substance, how does the amyloid nucleation score read?
A: -0.023 ± 0.63

Q: With LIYYNLIGHRVSWGEVGYFV as the substance, how does the amyloid nucleation score read?
A: 0.014 ± 0.35

Q: With SRDASLDRPSRRV as the substance, how does the amyloid nucleation score read?
A: -0.465 ± 0.49

Q: Which amyloid nucleation score does the source give for WRGRVTKFRVLH here?
A: 0.105 ± 0.53

Q: With LWLLHGFDWWKCIYLPGRFL as the substance, how does the amyloid nucleation score read?
A: 0.307 ± 0.97

Q: For TSASVGLVMWTTWMRNQG, which amyloid nucleation score is on record?
A: 3.75 ± 0.087

Q: With EITVAVSDYGVGSTWSG as the substance, how does the amyloid nucleation score read?
A: 0.381 ± 0.84

Q: Which amyloid nucleation score does the source give for RTSLSLSKVAFNWMFQRYSS here?
A: 0.181 ± 1

Q: With PFYLEARKVDEVMSLTYIV as the substance, how does the amyloid nucleation score read?
A: -0.693 ± 0.67

Q: For VGVVGDYDLQIS, which amyloid nucleation score is on record?
A: -1.2 ± 2.4

Q: For LTKISQLKRCDHKMRKSVSN, which amyloid nucleation score is on record?
A: 0.517 ± 0.26

Q: Which amyloid nucleation score does the source give for CLDVGHIFLGKVEWTGEPW here?
A: -0.375 ± 0.64
